According to the supplement of paper PMC10201428:
± gives the standard deviation of the averaged measurements.

B1: library; a variant is named by its letters at N, in order (parent)
chain: AATGTTGTTGATGCAACCATAAAGTGATATTTAATAATTATTTATAATCAGCAACTTAACCACAAAACAACCATATATTGATATNTCACAAAACAACCATAANTTGATATTTTTGTGAATCGAGTATTTCAGCAAAACTACTGCAGTAAGAA

Columns and labels:
[1] = variants of: B1; test: relative integration efficiency (T-LR orientation) vs wild-type transposon end (log2 (normalized fold change)); transposon end mutated: left end; higher = more efficient transposition; details: with VchCAST RNA-guided transposition machinery (E. coli BL21(DE3) host, lacZ target)
Method in brief: (§1)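 Each barcoded pool, 1549 left-end or 1849 right-end transposon variants in a pUC57 mini-transposon donor, went into E. coli BL21(DE3) with a T7-driven effector plasmid (CRISPR array, tniQ-cas8-cas7-cas6, tnsA-tnsB-tnsC). Plates contained 0.1 mM IPTG and were held at 37°C for 18 h. Input plasmids and genomic integration junctions were PCR-amplified and read by Illumina sequencing, with two biological output replicates and four reference barcodes. Relative integration efficiency is the fold change of output over input barcode abundance, normalised to the reference barcodes and log-transformed.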

[2] = variants of: B1; test: relative integration efficiency (T-RL orientation) vs wild-type transposon end (log2 (normalized fold change)); transposon end mutated: left end; higher = more efficient transposition; details: with VchCAST RNA-guided transposition machinery (E. coli BL21(DE3) host, lacZ target)
Method in brief: as §1

In the case of CG T32G A33C, the “relative integration efficiency (log2)” value [1] is reported as 0.439 ± 0.1 and the “relative integration efficiency (log2)” value [2] is reported as 0.352 ± 0.14.

For CG T38A T39A, the “relative integration efficiency (log2)” value [1] was 0.516 ± 0.23 and the “relative integration efficiency (log2)” value [2] was 0.474 ± 0.18.

In the case of CG G51T C52A, the “relative integration efficiency (log2)” value [1] is reported as 0.348 ± 0.34 and the “relative integration efficiency (log2)” value [2] is reported as 0.159 ± 0.19.

With CG T12A G13A T30A T32A A77C T86G the “relative integration efficiency (log2)” value [1] was -0.499 ± 0.21 and the “relative integration efficiency (log2)” value [2] was -0.36 ± 0.22.

With CG T42A T43A the “relative integration efficiency (log2)” value [1] was 0.176 ± 0.54 and the “relative integration efficiency (log2)” value [2] was -0.0273 ± 0.049.

CG G24C T78A T104A was tested, and the “relative integration efficiency (log2)” value [1] was -0.403 ± 0.24 and the “relative integration efficiency (log2)” value [2] was -0.396 ± 0.19.

CG T20A was tested, and the “relative integration efficiency (log2)” value [1] was -0.647 ± 0.083 and the “relative integration efficiency (log2)” value [2] was -0.343 ± 0.17.

CG T20G was tested, and the “relative integration efficiency (log2)” value [1] was -0.668 ± 0.64 and the “relative integration efficiency (log2)” value [2] was -0.834 ± 0.6.

For CG T20C, the “relative integration efficiency (log2)” value [1] was -1.08 ± 0.45 and the “relative integration efficiency (log2)” value [2] was -1.07 ± 0.49.

With CG G124T T125G the “relative integration efficiency (log2)” value [1] was -0.377 ± 0.42 and the “relative integration efficiency (log2)” value [2] was -0.329 ± 0.048.

For CG T25A T79A T105A, the “relative integration efficiency (log2)” value [1] was -3.4 ± 0.079 and the “relative integration efficiency (log2)” value [2] was -1.88 ± 0.86.

For GG T30A T31A T32A A33T T84A T86A C87G T110A T111A T112A T113A, the “relative integration efficiency (log2)” value [1] was -1.77 ± 2.3 and the “relative integration efficiency (log2)” value [2] was -1.15 ± 0.64.

In the case of CG T6C, the “relative integration efficiency (log2)” value [1] is reported as -1.5 ± 1 and the “relative integration efficiency (log2)” value [2] is reported as -2.65 ± 0.37.

In the case of CG T6A, the “relative integration efficiency (log2)” value [1] is reported as less than -10 and the “relative integration efficiency (log2)” value [2] is reported as -6.68 ± 0.076.

In the case of CG G106C A107T, the “relative integration efficiency (log2)” value [1] is reported as -1.92 ± 1.4 and the “relative integration efficiency (log2)” value [2] is reported as -1.78 ± 0.63.

In the case of CG T12A G13C, the “relative integration efficiency (log2)” value [1] is reported as 0.233 ± 0.21 and the “relative integration efficiency (log2)” value [2] is reported as -0.107 ± 0.067.

CG T12A G13A was tested, and the “relative integration efficiency (log2)” value [1] was -0.256 ± 0.34 and the “relative integration efficiency (log2)” value [2] was -0.294 ± 0.04.

CG T30A T31A was tested, and the “relative integration efficiency (log2)” value [1] was 0.174 ± 0.14 and the “relative integration efficiency (log2)” value [2] was 0.109 ± 0.27.

In the case of CG T20A T74A T100A, the “relative integration efficiency (log2)” value [1] is reported as -1.01 ± 0.38 and the “relative integration efficiency (log2)” value [2] is reported as -1.12 ± 0.54.

With CG T28G A29C T30G T31G the “relative integration efficiency (log2)” value [1] was -2.32 ± 0.87 and the “relative integration efficiency (log2)” value [2] was -1.98 ± 0.8.

With CG T30G T31G the “relative integration efficiency (log2)” value [1] was -1.56 ± 0.31 and the “relative integration efficiency (log2)” value [2] was -0.964 ± 0.45.

With CG T31C the “relative integration efficiency (log2)” value [1] was 0.331 ± 0.47 and the “relative integration efficiency (log2)” value [2] was -0.0756 ± 0.17.

CG T31G was tested, and the “relative integration efficiency (log2)” value [1] was -0.35 ± 0.1 and the “relative integration efficiency (log2)” value [2] was -0.221 ± 0.21.

With CG T31A the “relative integration efficiency (log2)” value [1] was 0.0948 ± 0.84 and the “relative integration efficiency (log2)” value [2] was -0.128 ± 0.14.

CG G80T A81C T82G A83C was tested, and the “relative integration efficiency (log2)” value [1] was -2.93 ± 1.9 and the “relative integration efficiency (log2)” value [2] was -2.64 ± 0.94.

With CG G26T G80T G106T the “relative integration efficiency (log2)” value [1] was -1.86 ± 1.8 and the “relative integration efficiency (log2)” value [2] was -2.79 ± 1.3.

CG G26C A27T T28A A29T was tested, and the “relative integration efficiency (log2)” value [1] was -1.67 ± 0.28 and the “relative integration efficiency (log2)” value [2] was -1.58 ± 0.67.

For CG G26C A27T, the “relative integration efficiency (log2)” value [1] was -3.33 ± 1.1 and the “relative integration efficiency (log2)” value [2] was -2.12 ± 0.85.

In the case of CG G117A, the “relative integration efficiency (log2)” value [1] is reported as -0.315 ± 0.5 and the “relative integration efficiency (log2)” value [2] is reported as -0.123 ± 0.016.

CG G117T was tested, and the “relative integration efficiency (log2)” value [1] was -0.0744 ± 0.017 and the “relative integration efficiency (log2)” value [2] was -0.0764 ± 0.036.

With CG G117C the “relative integration efficiency (log2)” value [1] was -0.761 ± 0.33 and the “relative integration efficiency (log2)” value [2] was -0.41 ± 0.12.

CG T30A T31C T32A A77C T86G was tested, and the “relative integration efficiency (log2)” value [1] was 0.153 ± 0.44 and the “relative integration efficiency (log2)” value [2] was 0.116 ± 0.27.

With CG T35A the “relative integration efficiency (log2)” value [1] was 0.179 ± 0.22 and the “relative integration efficiency (log2)” value [2] was 0.0694 ± 0.048.

With CG T35C the “relative integration efficiency (log2)” value [1] was -0.112 ± 0.24 and the “relative integration efficiency (log2)” value [2] was -0.0902 ± 0.18.

CG T35G was tested, and the “relative integration efficiency (log2)” value [1] was 0.136 ± 0.33 and the “relative integration efficiency (log2)” value [2] was 0.163 ± 0.11.

CG G122T A123C G124T T125G was tested, and the “relative integration efficiency (log2)” value [1] was 0.252 ± 0.21 and the “relative integration efficiency (log2)” value [2] was 0.127 ± 0.054.

CG T45G A46C A47C T48G was tested, and the “relative integration efficiency (log2)” value [1] was -0.0893 ± 0.7 and the “relative integration efficiency (log2)” value [2] was -0.487 ± 0.43.

For CG T12A G13A T30A T31C T32A T86G, the “relative integration efficiency (log2)” value [1] was -0.319 ± 0.034 and the “relative integration efficiency (log2)” value [2] was -0.119 ± 0.27.

With CG T3G G4T T5G T6G the “relative integration efficiency (log2)” value [1] was less than -10 and the “relative integration efficiency (log2)” value [2] was -7.767 ± 0.04.

In the case of CG T12G G13T, the “relative integration efficiency (log2)” value [1] is reported as -0.641 ± 0.4 and the “relative integration efficiency (log2)” value [2] is reported as -0.29 ± 0.15.

CG T38A was tested, and the “relative integration efficiency (log2)” value [1] was 0.0433 ± 0.41 and the “relative integration efficiency (log2)” value [2] was -0.123 ± 0.054.

In the case of CG T38G, the “relative integration efficiency (log2)” value [1] is reported as 0.138 ± 0.0017 and the “relative integration efficiency (log2)” value [2] is reported as -0.123 ± 0.065.

With CG T38C the “relative integration efficiency (log2)” value [1] was 0.236 ± 0.068 and the “relative integration efficiency (log2)” value [2] was -0.0081 ± 0.1.

With CG T39G A40C T41G T42G the “relative integration efficiency (log2)” value [1] was 0.3517 ± 0.00068 and the “relative integration efficiency (log2)” value [2] was 0.179 ± 0.11.

With CG G115C the “relative integration efficiency (log2)” value [1] was 0.709 ± 0.14 and the “relative integration efficiency (log2)” value [2] was 0.417 ± 0.026.

For CG G115A, the “relative integration efficiency (log2)” value [1] was 0.113 ± 0.17 and the “relative integration efficiency (log2)” value [2] was -0.259 ± 0.26.

For CG G115T, the “relative integration efficiency (log2)” value [1] was 0.42 ± 0.24 and the “relative integration efficiency (log2)” value [2] was 0.238 ± 0.1.

With CG T41A A44G A46T A50C A53T A54C C55A T56C T57A A59T C60T A62C the “relative integration efficiency (log2)” value [1] was -2.59 ± 1.4 and the “relative integration efficiency (log2)” value [2] was -3.65 ± 0.63.

With AG T30G T31G T32G A33C T84G T86G C87A T110G T111G T112G T113G the “relative integration efficiency (log2)” value [1] was -2.2 ± 1.2 and the “relative integration efficiency (log2)” value [2] was -2.54 ± 0.82.

In the case of CG T25A G26C A27T T28A, the “relative integration efficiency (log2)” value [1] is reported as -2.09 ± 0.86 and the “relative integration efficiency (log2)” value [2] is reported as -2.28 ± 0.71.

In the case of CG T43G A44C, the “relative integration efficiency (log2)” value [1] is reported as 0.129 ± 0.046 and the “relative integration efficiency (log2)” value [2] is reported as -0.0854 ± 0.05.

CG T9G G10T A11C T12G was tested, and the “relative integration efficiency (log2)” value [1] was -1.29 ± 0.52 and the “relative integration efficiency (log2)” value [2] was -0.645 ± 0.35.

For CG T45A A46T, the “relative integration efficiency (log2)” value [1] was -0.208 ± 0.19 and the “relative integration efficiency (log2)” value [2] was 0.192 ± 0.024.

In the case of CG T41A T42A, the “relative integration efficiency (log2)” value [1] is reported as 0.775 ± 0.0053 and the “relative integration efficiency (log2)” value [2] is reported as 0.864 ± 0.047.

For CG T39A A40T T41A T42A, the “relative integration efficiency (log2)” value [1] was 0.453 ± 0.17 and the “relative integration efficiency (log2)” value [2] was 0.475 ± 0.019.

With CG T45C T48C G51T C52A C55G T57G A59T C60A C61T A62T C63T A66C A67T the “relative integration efficiency (log2)” value [1] was -0.402 ± 1 and the “relative integration efficiency (log2)” value [2] was -5.71 ± 1.3.

CG G80T A81C was tested, and the “relative integration efficiency (log2)” value [1] was -1.7 ± 0.97 and the “relative integration efficiency (log2)” value [2] was -1.51 ± 0.7.

With CG T48A C49G A50T G51C the “relative integration efficiency (log2)” value [1] was -2.64 ± 0.41 and the “relative integration efficiency (log2)” value [2] was -2.28 ± 0.62.
